Test results as given in the DeepSol protein solubility set.

Assay: soluble on expression in E. coli; label from the status in PepcDB or PDB records
With “MLAAKNILNRSSLSSSFRIATRLQSTKVQGSVIGIDLGTTNSAVAIMEGKVPKIIENAEGSRTTPSVVAFTKEGERLVGIPAKRQAVVNPENTLFATKRLIGRRFEDAEVQRDIKQVPYKIVKHSNGDAWVEARGQTYSPAQIGGFVLNKMKETAEAYLGKPVKNAVVTVPAYFNDSQRQATKDAGQIVGLNVLRVVNEPTAAALAYGLEKSDSKVVAVFDLGGGTFDISILDIDNGVFEVKSTNGDTHLGGEDFDIYLLREIVSRFKTETGIDLENDRMAIQRIREAAEKAKIELSSTVSTEINLPFITADASGPKHINMKFSRAQFETLTAPLVKRTVDPVKKALKDAGLSTSDISEVLLVGGMSRMPKVVETVKSLFGKDPSKAVNPDEAVAIGAAVQGAVLSGEVTDVLLLDVTPLSLGIETLGGVFTRLIPRNTTIPTKKSQIFSTAAAGQTSVEIRVFQGERELVRDNKLIGNFTLAGIPPAPKGVPQIEVTFDIDADGIINVSARDKATNKDSSITVAGSSGLSENEIEQMVNDAEKFKSQDEARKQAIETANKADQLANDTENSLKEFEGKVDKAEAQKVRDQITSLKELVARVQGGEEVNAEELKTKTEELQTSSMKLFEQLYKNDSNNNNNNNGNNAESGETKQ” the “soluble on expression in E. coli” value was “not soluble”. In the case of “MGSDKIHHHHHHMCNSYLEYTAAGVSDLRPYQPGKPLAELERELGIRDAIKLASNENPLGPSPLALAAVREVLPALAQYPEGSAPELRALLARQLDLDPGQFIFGNGSDQVVELAVRALAGPGTEVIVSQYAFAAYAIAAQASGATVRVAPARDYGHDLDAMASLLNANTRLVFIANPNNPTGTYLTADALETFIDSVPSHALVVLDEAYLELMDAADYPDGRRWLRRFGNLMLTRTFSKAYGLAGLRCGYGIGHPDLMAVLERVRQPFNVNTLAQVAAHAALTDRAHLQATLANNRQGIVALRDGLCNLGLTILPPAGNFTAFAVPGGGQRVYEALLLRGVIVRPLTPYGMPDHLRVSVGLPVENQRFLTMLGEVL”, the “soluble on expression in E. coli” value is reported as “not soluble”. For “MALDKLLENEAQSEIERIRAEARGRAEKIVADARERAQTLLDSRQRLLENQRQAGLVRARSAADLELNAARLTASESGVTQVYQMVEDYLGNVTSAPEYGNILSRLIQEGLQAVPDAEAIEVNPAEMNVARHLVSGVEVRENPSIKGGVRVVARGGKSGVTNTLSGRLERVKADMAPQISRLLAE”, the “soluble on expression in E. coli” value was “soluble”. For “MGSDKIHHHHHHMPLLEIKNLTKIFTIGSIFSRTRIVAVDNVNFDINEAEIFTLAGESGCGKTTTAKIILGFEEPTSGEIIYKGRKIDRVHQNEKERRELLKEIQAVFQNPFSTFNPLRKVDRYFYETLFNLGIADTKKKAEEIIKEKLSAVGISFEEFSEKYPSEFSGGQLQRISIARALLTNPSLLVADEPVSMVDASLRMSIVNLFKDLKEQYGVSVLYITHDLTTAYYVSDRIAVMFRGNIVELGPAEKVLMEPKHPYTQLLRESVPEPDPKKKWDIRIKLSETEQAEYLRQGCKFAGRCPKAMDICRKEPPPYFEVDGVQVKCWLYR”, the “soluble on expression in E. coli” value was “not soluble”. With “LKLTPRQYNDVYEVNYDFINNVRYLMDDVVRGYDYALERYYDFLDVRNDDLRWILSSAQYRRFMRAEHFYRPIYAHENKWHFRIYLVYNNVNFFYYGKPHHYASYCGGHYRTHFNNVSYYKTHYRDHYRHDVYDGHYRIRHDRMTYDMHRRRDFNIAVRPPQKEHHRPATPPQTRPNRPQIHPDRP” the “soluble on expression in E. coli” value was “not soluble”. In the case of “MKIAGFDIGGANTDMAIIDFGSDGDMKEVRVDFRYLPMWLRKDELAETLLEMVGDDLHELEGVGVCMTAELVDAYPSKAAGVADIIDRVEGAFDVPVAYVSLSGMVDASEALADPMNIAAANWVATSQIASAMSSDCIMVDVGSTTTDIIPVKDGFEAARGRNDLERLSTGELVYTGTLRTNVATIVDRVPLQDKWFRVSSELFAVTADVHRVLGNIGESDYTCSTPDGAGKSVEECMLRIARVLCADLELLSPGDVLDVAEYIYHQQILKIAEGIAEVSEREGLEEVVTTGLGMKILAQRAAEVLELECRTMDEFLTEEECVVAPAVGTALLMEDYLQAQGLLEHHHHHH”, the “soluble on expression in E. coli” value is reported as “not soluble”. With “PSLSKEAALVHEALVARGLETPLRPPVHEMDNETRKSLIAGHMTEIMQLLNLDLADDSLMETPHRIAKMYVDEIFSGLDYANFPKITLIENKMKVDEMVTVRDITLTSTSEHHFVTIDGKATVAYIPKDSVIGLSKINRIVQFFAQRPQVQERLTQQILIALQTLLGTNNVAVSIDAVHYCVKARGIRDATSATTTTSLGGLFKSSQNTRHEFLRAVRHHN” the “soluble on expression in E. coli” value was “soluble”. With “MGHHHHHHSHMTDIKILDACCGSRLFWFDKNEPHTTFMDVRQEKFEMHGKKINVNPDVIGDFRDMPFESNSFNLVVFDPPHLKYVGQNSIMKAQYGQLDKENWKEDISKGFEECMRVLKVGGTLVFKWSDCQVNVREVLSAIPFKPLFGQQRGTTHWMTFVKFELTGNGG” the “soluble on expression in E. coli” value was “not soluble”. For “MGHHHHHHSHMEEAGSVALEELVEKEKDRFFSGVDYIVISDNLWISQRKPAITYGTRGNSYFMVEVKCRDQDFHSGTFGGILHEPMADLVALLGSLVDSSGHILVPGIYDEVVPLTEEEINTYKAIHLDLEEYRNSSRVEKFLFDTKEEILMHLWRYPSLSIHGIEGAFDEPGTKTVIPGRVIGKFSIRLVPHMNVSAVEKQVTRHLEDVFSKRNSSNKMVVSMTLGLHPWIANIDDTQYLAAKRAIRTVFGTEPDMIRDGSTIPIAKMFQEIVHKSVVLIPLGAVDDGEHSQNEKINRWNYIEGTKLFAAFFLEMAQLH”, the “soluble on expression in E. coli” value was “not soluble”. In the case of “MGSDKIHHHHHHMNHFFVEFGEYEASVCEWGDKSNPQIICFHGLGSTKLSFIEVAELLKDSYHIVSFDLPGHGKTQNFEKDEDYGASHLTNWVVALLEHIGKETFHIVAHSWGASVALHYAAECPEKVNKIVLLDGGYHHGKMNADYFANLYKDAKEGECPPRSLEEEITHYENDFDEYIFDSKETFIQSEKLAYSRWSPLLERAVYDLMREEDSKVKWHATGDTARGVIKFQYTVYKTLKPHKIKSDILLLYCDLPDNYLEIRELQIVEFKKRINITTKLYKDTGHLMHWDRPEEIAEDVLHWFK”, the “soluble on expression in E. coli” value is reported as “not soluble”. In the case of “MNVKGFRFSAVEAAIKKPGRLDLALICSDAPAAVAAVYTTNKVKAAPVLLDMERTTSGTCRAVVVNSGNANACTGDRGMEDARETTSLVAERIGASEHEVLVCSTGVIGVPLPMERIRGGIPSLVAGLGSATLDQIAAAIMTTDTFPKLEARTGTAGGVGYTIAGIAKGAGMIMPNMATMLAFVVTDAAVDPQWLDRVFRRANDTSFNAITVDGDMSTNDTAIIMANGAAGNPVLSEGSEGAAEFAVLLEEVLLSLAKLIVKDGEGATKFVEVTVKGARSDADAKRAAMAVANSCLVKTAFFGQDANWGRIFAAVGYSGADVEPDRAELFFDDVRMVQGGVFAGGDAEARGTGVLRKKEFTVTVDLHLGDGRATVYTSDLSYDYVKINADYRTLEHHHHHH”, the “soluble on expression in E. coli” value is reported as “not soluble”. For “MGSDKIHHHHHHMKTPLVITALSLCLPFMAHAGSSFVEGDDILAGEVELGATLTTGNTDTSSFKGRLALKHELGNWENQYLLEGLYKEDTETVTAKRYIVGAQGDYLIDHDSYIFSNMNYEVDPFTGYEYSFTAASGYGHKFINDDRTKLKAEIGPGFIYQKLDSTLAAIEGYDTDKSVVAHAVINFETKLGDSSKFGQKLVMDMGEKIDARSETSLTANIVGALAMKFAVIVRYNSNPLDSKTSTDTETNMTLLYAF”, the “soluble on expression in E. coli” value was “not soluble”. In the case of “FNFGASYKNFSFSAQFGASWGTYALVQTDLRQEKYDDLEYKNVSAMWKDMYVYEDVLDAGGNVVAPMNRSAKYPNLRYSAINGQASTFWKVSAASVRLRNLTVAYSLPKEWTNRIGISSCRLNLTAQNLLNFYNPYPDGVWSTWGGTYGRYPNLRKVTLGVNVSF”, the “soluble on expression in E. coli” value is reported as “not soluble”. With “PHSHPALTPEQKKELSDIAHRIVAPGKGILAADESTGSIAKRLQSIGTENTEENRRFYRQLLLTADDRVNPCIGGVILFHETLYQKADDGRPFPQVIKSKGGVVGIMVDKGVVPLAGTNGETTTQGLDGLSERCAQYKKDGADFAKWRCVLKIGEHTPSALAIMENANVLARYASICQQNGIVPIVEPEILPDGDHDLKRCQYVTEKVLAAVYKALSDHHIYLEGTLLKPNMVTPGHACTQKYSHEEIAMATVTALRRTVPPAVTGVTFLSGGQSEEEASINLNAINKCPLLKPWALTFSYGRALQASALKAWGGKKENLKAAQEEYVKRALANSLACQGKYTSSGQAGAAASESLFISNHAY” the “soluble on expression in E. coli” value was “soluble”. In the case of “GMRNPSEDHMMRTPYQIVADHYAASDRHDPAAMMADIAPAIEWTEMAGFPCAGTYRSADEIVRNVFRRLGEEWDGYTFKLDALHDAGDTVIGVGRYSGTYRRTGKSFECRVAHVWRVDAGKIVHFEQFTDTLLVAQAMQP”, the “soluble on expression in E. coli” value is reported as “soluble”. In the case of “MGSDKIHHHHHHPEQQVQQFAQLPVGFKNMGNTCYLNATLQALYRVNDLRDMILNYNPSQGVSNSGAQDEEIHKQIVIEMKRCFENLQNKSFKSVLPVVLLNTLRKCYPQFAERDSQGGFYKQQDAEELFTQLFHSMSIVFGDKFSEDFRIQFKTTIKDTANDNDITVKENESDSKLQCHISGTTNFMRNGLLEGLNEKIEKRSDLTGANSIYSVEKKISRLPKFLTVQYVRFFWKRSTNKKSKILRKVVFPFQLDVADMLTPEYAAEKVKVRDELRKVEKEKNEKEREIKRRKFDPSSSENVMTPREQYETQVALNESEKDQWLEEYKKHFPPNLEKGENPSCVYNLIGVITHQGANSESGHYQAFIRDELDENKWYKFNDDKVSVVEKEKIESLAGGGESDSALILMYKGFGL”, the “soluble on expression in E. coli” value is reported as “soluble”. With “MIDEPTGLYNRLRLQEDVSLRLQRDGALTVIAADLLPLALLNTIIRTLGYPFSNDLMLEARDRIRAELPDFTLYKISPTRFGLLLPRQQQEETESVCLRLLRAFESPVVCRGIPIKANVGLGVLPLADDTLDGDQDWLRLVVSAADDARDRGVGWARYNPPLDQAQQRLEHHHHHH” the “soluble on expression in E. coli” value was “soluble”. For “MGHHHHHHSHMAEAKPDVWKSYNVGTVLFEDKASETKGSDIYHRIIPDAESYIKEQARTVLATLYNSPEDSITPVNKIHYTLEDIEGISAKGGGNGDVTIFYSTRHIEKSFAENDTAKLFFETRGVLLHELTHAYQLEPQGIGSYGTNRVFWAFIEGMADAVRVANGGFDGPNARPKGGNYMDGYRTAGYFFVWLRDNKDPEFLRKFNRSTLEVIPWSFDGAIKHILGTEYSIDELWHEYQVAVGDIQV”, the “soluble on expression in E. coli” value was “soluble”. For “GSFLPNSEQQKSVDIVFSSPQDLTVSLIPVSGLKAGKNAPSAKIAKLVVNSTTLKEFGVRGISNNVVDSTGTAWRVAGKNTGKEIGVGLSSDSLRRSDSTEKWNGVNWMTFNSNDTLDIVLTGPAQNVTADTYPITLDVVGYQP”, the “soluble on expression in E. coli” value was “soluble”. For “MGSDKIHHHHHHMKAKAAFFDIDGTLYREGLISEVFKKLIKYEIIDEEKWYKEVRPEFEKWDNRKGDYDDYLLKMTEIYVDALNGLSKSQVEFIASQVVNQKGERVYTYTRDRIKWHKERGHKIITISGSPIELVRNMAEKYGFDDYRGAEYLLDENDVYTGEVIPMWDSKSKERAVHELEAKYNIDLGESYAYGDTSGDLTMLKMVGNPVCINPTKELVKEILSAAAVKNKIRIIVERKDMIYKISSRCLECDCEFVL”, the “soluble on expression in E. coli” value was “not soluble”. In the case of “MSLSAAEAGPLQGGLHVLIVDDNDINLKVLSTFMSKIGCSYDTASNGLVAVEKYRQTQQKFDYVLMDISMPIMDGITASRTIREYEDESLLERCTIMAVTGVASSDMQQQAFAAGMDDYLVKPLSLHDLKRILGVNEGHHHHHH”, the “soluble on expression in E. coli” value is reported as “not soluble”. With “QYRHMIGQDAGYKAAGLYYVPIESLDQQQLPVVIEKLKALPEVEGYTLTTALPASSGQSGDNLIDPVTDRELINVADLFYVDEHYLKVYDIELLEGKNFDAATEKDREIMLSKKAATELARLMNWKDGVIGKNIILTSFGRVVIRGVYDDLMLRRQHLSPYPEKLPSAIVYGDDWLHYLTIRLRHDDARLLHRVNGILSEADPYKETSFLGVEMELLSRFEAAKTFRNT” the “soluble on expression in E. coli” value was “not soluble”.
